Among the data in patent US20210221899A1 (published 2021) are Kd, koff and kon values, retold here.

One experiment has as its target T1, canine NGF (canine, UniProt Q29074 110-229 (pig entry), limits assumed).
T1 construct: The protein was secreted from CHO cells and purified; also called cNGF; canine β-NGF
T1 chain: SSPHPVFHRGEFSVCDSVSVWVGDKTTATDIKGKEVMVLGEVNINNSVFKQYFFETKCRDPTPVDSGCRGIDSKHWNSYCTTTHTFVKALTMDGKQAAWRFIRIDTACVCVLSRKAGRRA
Nature of the experiment: SPR (Biacore), NGF amine-coupled on chip, antibody injected. As for the experimental part:
(§1) Antibody binding affinities of the antibodies against canine NGF were determined by surface plasmon resonance (SPR) on a Biacore system (Biocore Life Sciences (GE Healthcare), Uppsala, Sweden). Immobilization of canine and rat NGF were obtained by amine coupling […] NGF using N-hydroxysuccinimide (NHS)/1-Ethyl-3-(3-dimethylaminopropyl) carbodiimide (EDC) chemistry. Chips were quenched with ethanolamine and the affinity with which all candidate mAbs bound to the immobilized NGF was evaluated. Various concentrations of canine and felinized anti-NGF antibodies were injected over the NGF surfaces while the association of the antibody to the antigen and the dissociation of the formed complex were monitored in real time. Kinetic analysis was performed to obtain the equilibrium dissociation constant (KD).
Background: Surface plasmon resonance follows binding to a sensor surface in real time, without labels.

For another experiment, the target named is T2, rat NGF (rat, UniProt P25427 122-241).
T2 construct: also called rN
T2 sequence (P25427 122-241 limits assumed): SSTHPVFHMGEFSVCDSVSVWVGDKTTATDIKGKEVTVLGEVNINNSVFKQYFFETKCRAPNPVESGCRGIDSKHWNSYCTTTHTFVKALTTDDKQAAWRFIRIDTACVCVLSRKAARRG
The description is as above. On the procedure:
as §1

B1: ZTS-842 (antibody, V domains shown)
VH: EVQLVESGGDLVKPGGSLRLSCVASGFTFSTYGINWVRQAPGKGLQWVAYISSGGSSTYYADPVKGRFTISRDDAKNMLYLQMNSLRAEDTAIYYCAGSRYTYAYGGGYEFHFWGQGTLVTVSS
VL: QAVLNQPASVSGALGQKVTISCSGSTMDIDIFGVSWYQQLPGKAPKLLVDSDGDRPSGIPDRFSGSRSGNSGTLTITGLQAEDEADYHCQSGDSTLGALAIFGGGTHVTVL
notes: Canine mAb; also called 48L2; can48L2
The Kd is the equilibrium constant for the complex coming apart. By koff is commonly meant the rate constant with which the complex falls apart. In general, kon refers to the rate constant with which the complex forms. A low value points to slow association. In the experiment with canine NGF, B1 displayed a Kd of 0.0217 nM, a koff of 2.27e-05 s⁻¹ and a kon of 703000 M⁻¹ s⁻¹. In the experiment with rat NGF, this molecule came in with a Kd of 0.00325 nM, a koff of 1.42e-06 s⁻¹ and a kon of 573000 M⁻¹ s⁻¹.

B2: ZTS-205 (antibody, V domains shown)
VH: DVQLVESGGDLVKPGGSLRLTCVASGFTFSTYGINWVRQAPGKGLQWVAYISSGGSSTYYADPVKGRFTISRDNAKNMLYLQMNNLKTEDTATYYCAGSRYTYAYGGGYEFHFWGQGTLVTVSS
VL: QAVLNQPSSVSGALGQRVTISCSGSTMDIDIFGVSWYQQIPGMAPKTIIDSDGDRPSGVPDRFSGSKSGSTGTLTITGLQAEDEADYYCQSGDSTLGALAIFGGGTHVTVLG
notes: Felinized 48L2; also called fel48L2 1.1; fel48L21.1
For B2, in the experiment with canine NGF, the affinity, expressed as Kd, was 0.111 nM; the koff came to 8.93e-05 s⁻¹; the association rate constant (kon) was found to be 426000 M⁻¹ s⁻¹. In the experiment with rat NGF, this molecule had a Kd of 0.277 nM, a koff of 0.00029 s⁻¹ and a kon of 672000 M⁻¹ s⁻¹.

B3: ZTS-841 (antibody, V domains shown)
VH: EVQLVESGGDLVKPGGSLRLSCVASGFTFSSHGMHWVRQSPGKGLQWVAVINSGGSSTYYTDAVKGRFTISRDNAKNTVYLQMNSLRAEDTAMYYCAKESVGGWEQLVGPHFDYWGQGTLVIVSS
VL: QSVLTQPTSVSGSLGQRVTISCSGSTNNIGILGASWYQLFPGKAPKLLVYGNGNRPSGVPDRFSGADSGDSVTLTITGLQAEDEADYYCQSFDTTLGAHVFGGGTHLTVL
notes: Canine mAb; also called 9L12; can9L12
On to B3, for which, in the experiment with canine NGF, the Kd turned out to be 0.0506 nM, the koff was 2.36e-05 s⁻¹ and the kon was determined as 527000 M⁻¹ s⁻¹. In the experiment with rat NGF, this molecule displayed a Kd of 0.108 nM, a koff of 4.61e-05 s⁻¹ and a kon of 587000 M⁻¹ s⁻¹.
